Measured values published in the Human Domainome abundance scans (Beltran et al. 2025).

B1: POU domain, class 2, transcription factor 2, residues 200 to 269; numbered along this chain, P09086 (parent)
chain: LEELEQFARTFKQRRIKLGFTQGDVGLAMGKLYGNDFSQTTISRFEALNLSFKNMCKLKPLLEKWLNDAE

Variants of: B1
Assay: abundance fitness (aPCA) (normalised: wild type 0, dead -1); higher = more abundant; growth selection in yeast, the domain comes from the species named
Conditions: Homo sapiens

Abundance fitness: each site, then its substitutions
M29: P -0.664 | I -0.211 | E -0.976 | T -0.075 | L 0.072 | K -0.95 | W -0.557 | C -0.076 | V 0.003 | Y -0.611 | N -0.616 | Q -0.463 | H -0.681 | S -0.552 | A -0.131 | R -0.655 | D -0.314 | F -0.146
D36: I -0.057 | Y 0.013 | E -0.026 | F 0.017 | L -0.049 | V -0.048 | H -0.003 | S -0.05 | N -0.063 | A -0.05 | W -0.052 | Q -0.047 | M -0.162 | G -0.06 | C -0.12 | R -0.034 | P -0.122
G34: Q 0.087 | L -0.208 | T -0.105 | K -0.111 | E 0.052 | R -0.132 | N -0.068 | C -0.143 | Y -0.06 | P -0.081 | D -0.065 | V -0.168 | F -0.177 | M -0.208 | S -0.062 | H -0.018 | W -0.207 | A -0.071 | I -0.248
F37: I 0.088 | D -0.4 | E -0.255 | G -0.28 | C -0.06 | H -0.093 | K -0.434 | A -0.152
G30: C -0.068 | L -0.044 | A -0.041 | S 0.061 | P -0.223 | Q 0.107 | F -0.001 | I -0.083 | R -0.063 | H -0.013 | Y -0.051 | D -0.068 | N 0.019 | T 0.009 | V -0.052 | W -0.013 | K -0.071
G23: M -0.01 | D -0.055 | A 0.04 | P -0.136 | N -0.089 | R -0.004 | L -0.021 | T -0.102 | W -0.076 | I -0.004 | K 0.029 | F -0.01 | E -0.04 | Y -0.218 | H -0.056 | V -0.029 | Q -0.07
F20: D -0.899 | N -0.427 | W -0.065 | H -0.035 | V -0.13 | T -0.317 | P -1.01 | S -0.207 | A -0.006 | Q -0.081 | L -0.004 | K 0.005 | Y -0.111 | R -0.083 | I -0.101
D24: E -0.093 | M -0.125 | Y -0.095 | Q 0.003 | W -0.285 | A -0.07 | C -0.172 | I -0.792 | N -0.091 | V -0.169 | F -0.158 | K -0.202 | G -0.113 | L -0.215 | H -0.065 | T -0.199 | R -0.177 | S -0.091 | P -0.918
Q22: G -0.187 | Y -0.423 | W -0.006 | H -0.062 | T -0.045 | K -0.042 | A 0.004 | P -0.071 | N -0.351 | S -0.093 | I -0.12 | C -0.004 | M -0.054 | L -0.025 | R -0.11 | V -0.059 | F -0.097
N35: Q -0.104 | V -0.091 | I -0.15 | A -0.016 | Y 0 | W -0.026 | D -0.095 | H -0.114 | E 0.106 | S -0.078 | F -0.029 | M -0.049 | T -0.203 | R -0.022 | P -0.017
L27: G -0.049 | I -0.069 | W -0.105 | P -0.39 | S -0.073 | H -0.043 | D -0.012 | N -0.019 | C -0.057 | A 0.041 | E -0.059 | Y 0.026 | M -0.033 | T -0.092 | V 0.015 | R 0.006
L32: S -0.01 | R -0.022 | T -0.071 | H -0.126 | M -0.021 | Q 0.04 | C -0.083 | V -0.098 | I -0.049 | F -0.093 | P -0.209 | W -0.201 | D 0.037 | A -0.006 | G -0.08 | Y 0 | N -0.163 | K 0.01
K31: D -0.114 | P -0.142 | L -0.092 | S -0.033 | A -0.019 | T -0.036 | R 0.002 | H -0.119 | I -0.136 | Q -0.04 | M -0.168 | W -0.246 | V -0.115 | G -0.047 | C -0.054 | E -0.064 | N -0.166 | Y -0.178 | F -0.336
Y33: R -0.17 | F -0.062 | D -0.036 | K -0.062 | L -0.024 | H -0.01 | T -0.016 | M -0.055 | P -0.068 | W -0.105 | S -0.041 | A -0.057 | I -0.076 | C -0.043 | V -0.06 | E -0.074 | Q -0.07 | N -0.156
L18: N -0.044 | V -0.234 | W -0.216 | E -0.253 | F -0.035 | M 0.014 | Q -0.053 | G -0.159 | Y -0.16 | D -0.763 | T -0.227 | I -0.099 | K -0.177 | C -0.213 | S -0.193 | R -0.233 | H -0.049 | P -1.05
G19: M -0.268 | P -0.98 | D -0.143 | N -0.022 | R -0.128 | L -0.321 | V -0.986 | S -0.118 | Q -0.498 | W -0.926 | F -0.461 | Y -0.908 | E -0.301 | I -0.793 | K -0.092 | T -0.521 | H -0.086 | C -0.349
G26: R -0.165 | H -0.109 | Q 0.042 | L -0.064 | F -0.18 | E -0.023 | V -0.022 | K -0.113 | D 0.047 | A -0.067 | T -0.014 | C -0.105 | M -0.131 | P -0.299 | W -0.023 | Y -0.085 | I -0.157
V25: Q -1.03 | E -0.926 | A -0.01 | P -0.915 | M -0.291 | G -1.05 | C -0.229 | F -0.548 | W -0.692 | S -0.453 | T -0.302 | H -0.996 | I -0.098 | R -0.696 | K -0.894
T21: W -0.633 | H -0.286 | K -0.173 | M -0.26 | V -0.573 | E -0.165 | G -0.135 | A -0.138 | F -0.625 | Q -0.205 | Y -0.77 | S -0.044 | I -0.746 | C -0.212 | R -0.14 | L -0.323
A28: Q 0.061 | H -0.064 | D 0.024 | I -0.167 | G -0.098 | F -0.032 | P -0.616 | C -0.108 | M -0.047 | E 0.06 | V -0.01 | S -0.079 | R -0.027 | K -0.021 | T 0.031 | N -0.095 | Y -0.101
